Reference: patent publication US20260258115A1 (MAPP BIOPHARMACEUTICAL, published 2026)
Where a chain is given by its changes, count along the chain named.

B1: ADI-25577 (antibody, V domains shown)
VH: QVTLKESGGGLVKPGGSLRLSCAASGFTFSSYSMNWVRQAPGKGLEWVSSISSSSSYIYYADSVKGRFTISRDNAKNSLYLQMNSLRAEDTAVYYCARYSSSLGAFDIWGQGTMVTVSS
VL: QSALTQPPSVSGAPGQRVTISCTGSSSNIGAGYDVHWYQQLPGTAPKLLIYGNSNRPSGVPDRFSGSKSGTSASLAITGLQAEDEADYYCQSYDSSLSDVFGTGTKLTVL
notes: full-length IgG
B2: ADI-25559 (antibody, V domains shown)
VH: EVQLLESGGGLVKPGGSLRLSCAASGFTFSSYSMNWVRQAPGKGLEWVSSISSSSSYIYYADSVKGRFTISRDNAKNSLYLQMNSLRAEDTAVYYCARDAAAKYYFDYWGQGTLVTVSS
VL: QPVLTQPPSVSGAPGQRVTISCTGSSSNIGAGYDVHWYQQLPGTAPKLLIYGNSNRPSGVPDRFSGSKSGTSASLAITGLQAEDEADYYCQSYDSSLSGKVFGTGTKLTVL
notes: full-length IgG
B3: ADI-25565 (antibody, V domains shown)
VH: EVQLVESGGGLVKPGGSLRLSCAASGFTFSSYSMNWVRQAPGKGLEWVSSISSSSSYIYYADSVKGRFTISRDNAKNSLYLQMNSLRAEDTAVYYCARIRFDYGSGSYAFDIWGQGTMVTVSS
VL: B2 VL with K100S, T104G
notes: full-length IgG
B4: ADI-14584 (antibody, V domains shown)
VH: QVQLVQSGAEVKKPGASVKVSCKASGFTFTNYGTSYGITWVRQAPGQGLEWMGWINTSNGNPNYAQKLQGRVTMTADTSTSTAYMELRSLISDDTAVYYCARGHRMVRGVVPTGYYGLDVWGQGTTVTVSS
VL: DIQLTQSPSSLSASVGDRVTITCRASQSISSYLNWYQQKPGKAPKLLIFAASNLQSGVPSRFSGSGSGTDFTLTISSLQPEDFATYYCQQSYITPWTFGQGTKVEIK
notes: also called Ab 113
B5: ADI-14394 (antibody, V domains shown)
VH: EVQLLESGGGLVKPGGSLRLSCAASGFTFSSYSMNWVRQAPGKGLEWVSSISSSSSYIYYADSVKGRFTISRDNAKNSLYLQMNSLRAEDTAVYYCARGSEYYFDYWGQGTLVTVSS
VL: B1 VL with A3V, D99V, T103G, L107V
notes: also called Ab 61
B6: ADI-14571 (antibody, V domains shown)
VH: QVQLVQSGAEVKKPGSSVKVSCKASGGTFSTYTITWVRQAPGQGLEWMGRIVPIFGVVNNAQKFLGRLTITADKSTSTAYMELSSLRSEDTAVYYCARIPCSGNCQDYYYGMDVWGQGTTVTVSS
VL: DIQLTQSPSFLSASVGDRVTITCRASQGISSYLVWYQQKPGKAPKLLIYAASTLQSGVPSRFSGSGSGTEFTLTISSLQPEDFATYYCQQLNNYPPTFGPGTKVDIK
B7: ADI-14572 (antibody, V domains shown)
VH: QVQLVQSGGGLVKPGGSLRLSCAASGFTFSNAWISWVRQAPGKGLEWVGRIKSATDGGTTDYAAPVKGRFTISRDDSKNTLYLQMDSLKTEDTAVYYCTTSYPYFDWLPFSVDYWGQGTLVTVSS
VL: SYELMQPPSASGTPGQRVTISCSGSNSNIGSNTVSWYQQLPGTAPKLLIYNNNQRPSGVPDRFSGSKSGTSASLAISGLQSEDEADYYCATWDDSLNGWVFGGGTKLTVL
B8: ADI-14395 (antibody, V domains shown)
VH: EVQLVESGGGVVQPGRSLRLSCAASGFTFSSYAMHWVRQAPGKGLEWVAVISYDGSNKYYADSVKGRFTISRDNSKNTLYLQMNSLRAEDTAVYYCARDDTYYYDSSGYSAPFDYWGQGTLVTVSS
VL: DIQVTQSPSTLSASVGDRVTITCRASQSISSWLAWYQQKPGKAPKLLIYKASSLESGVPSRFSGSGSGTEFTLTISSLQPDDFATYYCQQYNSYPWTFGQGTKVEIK
notes: also called Ab 62
B9: ADI-14397 (antibody, V domains shown)
VH: B8 VH with S107N
VL: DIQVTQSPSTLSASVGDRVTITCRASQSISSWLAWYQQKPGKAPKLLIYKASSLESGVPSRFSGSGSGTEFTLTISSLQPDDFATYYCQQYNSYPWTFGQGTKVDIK
notes: also called Ab 64
B10: ADI-21006 (antibody, V domains shown)
VH: QVTLKESGPTLVKPTQTLTLTCTFSGFSLSISGVGVGWIRQPPGKALEWLAVMYWDDDKRYSPSLKTRLTITKDTSKNQVVLTMTNMAPVDTAIYYCAHLWFGEAAFDPWGQGTLVTVSS
VL: EIVLTQSPLSLPVTLRQTASISCRSGQSLLYSDGNTYLNWFQQRPGQSPRRLISIVSKRDSGVPDRFSGSGSGTDFTLKISRVEAEDVGVYYCMQGTHWPYTFGQGTKVEIK
B11: ADI-14419 (antibody, V domains shown)
VH: EVQLVESGGGVVQPGGSLRLSCAASGFSFSDYGMHWVRQAPGKGLEWVSFIRYDASYKFYADSVKGRFTISRDNAKNTLYLQINSLRAEDTAVYYCAKEIYGSGSYYYYYYAIDVWGQGTTVTVSS
VL: EIVLTQSPGTLSLSPGERATLSCRASQSVSSSHLAWYQQKPGQAPRLLIYGASSRATGIPDRFSGSGSGTDFTLTISRLEPEDFAVYYCQQYFRSAWAFGQGTKVDIK
notes: also called Ab 85
B12: ADI-20977 (antibody, V domains shown)
VH: EVQLVESGGGLVQPGGSLRLSCAASGFTFTNYAMSWVRQAPGKGLEWVSGISGSGGSTYYADSVKGRFTISRDNSKNTLYLQMNSLRAEDTAVYYCAKDQGYAVVVADATRNLPPRRYGMDVWGQGTTVTVSS
VL: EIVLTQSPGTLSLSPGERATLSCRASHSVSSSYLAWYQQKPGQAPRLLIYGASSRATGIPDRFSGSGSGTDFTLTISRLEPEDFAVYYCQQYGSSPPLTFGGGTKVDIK
notes: also called Ab 230
B13: ADI-21009 (antibody, V domains shown)
VH: QVQLVQSGAEMKTPGASVKVSCKASGYSFSNYGFTWVRQAPGQGLEWMGWISGYSAKTNYAQDLQGRVTMTIDTSTSTSYMELRSLRSDDTAVYYCARDPLGYFGSGTYRGGAFDFWGQGTTVTVSS
VL: QSALTQPASVSGSPGQSITLSCTGTNNDVGSYHLVSWYQQYPGKAPKLVIYEVTKRPSGVSNRFSGSKSGNTASLTISGLQPEDEADYYCCSYAGDRRIFGGGTKVTVL
notes: also called Ab 260
B14: ADI-14579 (antibody, V domains shown)
VH: QVQLVQSGAEVKKPGESLKISCKVSGYSFTSYWIGWVRQMPGKGLEWMGIIYPGDSDTRYSPSFQGQVTISADKSITTAYLQWSSLKASDTAMYYCARPAHSSSWYGAFDLWGQGTTVTVSS
VL: DIQMTQSPSSLSASVGDRVTITCRASQGISNYLAWYQQKPGKVPKLLIYAASTLQSGVPSRFSGSGSGTDFTLTISSLQPEDVATYYCQKYNSAPLTFGGGTKVEIK
B15: ADI-14575 (antibody, V domains shown)
VH: QVQLVQSGAEVKKPGSSVKVSCKASGGTFSSYTISWVRQAPGQGLEWMGRIIPILGIANYAQKFQGRVTITADKSTSTAYMELSSLRSEDTAVYYCARPSSSSFAFDYWGQGTLVTVSS
VL: QSVLTQPASVSGSPGQSITISCTGTSSDVGGYNYVSWYQQHPGKAPKLMIYDVSNRPSGVSNRFSGSKSGNTASLTISGLQAEDEADYYCSSYTSSSTPVVFGGGTKVTVL
B16: ADI-21060 (antibody, V domains shown)
VH: EVQLVESGGGLVKPGGSLRLSCEASGFRLSDYYMTWIRQAPGKGLECISYISGGSTFKSYSDSVKGRFTISRDNTNLYLQMNSLRVEDTAVYYCARAPYLIYYMDVWGKGTTVTVSS
VL: QPVLTQPPSVSGAPGQRVSISCTGSNSNIGAGYDVHWYQQLPGTPPKLLIYDNNNRPSGVPDRFSGSKSGTSASLAITGLQAEDEADYYCQSYDNRLSGSQVLFGGGTKVTVL
B17: ADI-21031 (antibody, V domains shown)
VH: EVQLVESGPGLVKPSQTLSLTCTVSGGSISNSNYFWSWIRQPAGKGLEWIGRVHSSGTTSYNPSLKSRITISVDASESQFSLNLTSVTAADTAIYYCARDSSDWGLGWYFDLWGRGTLVTVSS
VL: ETTLTQSPATLSLSPGERATLSCRASQSVTFYLAWYQHKPGQAPRLLIFDASKRATGIPARFSGSGSGTDFTLTISSLEPEDFALYYCQQRSDWPQTFGQGTKVDIK
B18: ADI-20994 (antibody, V domains shown)
VH: QVQLVQSGAEVKKPGASVKVSCKASGYTFSSNVIGWVRQAPGQGLEWMGWISTNNGNTKYGQKFQGRVTMTTDPSTSTAYMELRSLRSDDTAFYYCARESLGMGGFYFDYWGQGTLVTVSS
VL: QPVLTQPPSVSVAPGQTARITCGGDNIGSKSVHWYQQKPGQAPVLVVYDDSDRPSGIPERFSGSNSGNTASLTISRVEAGDEADYCCQVWDSGSDLWVFG
B19: ADI-21035 (antibody, V domains shown)
VH: EVQLVESGHEVKKPGASVKVSCKASGYTFPSYGISWVRQAPGQGLEWMGWIVPYNGNTKYAQRFQGRITMTTDSPTSTASMELRGLRSDDTAVYYCARVFGDGYSYGYEYWGQGTLVTVSS
VL: DIVLTQSPSTLSASVGDRVTITCRASQSISIWLAWYQQKPGKAPKLLIYKTSELVSGVPSRFSGSGSGTEFTLTISGLQPDDFATYYCQQGNSYSHTFGQGTKVEIK
B20: ADI-20965 (antibody, V domains shown)
VH: QVQLVQSGAEVKKPGASVKVSCKASGYNFTNYGISWVRQAPGQGLEWMGWISTSNGNTHYAQKSQGRITLTTDTSTNTAYMEVRSLRSDDTAVYYCAREGPESTYDWYHFDSWGQGTLVTVSS
VL: QSVVTQPPSVSVAPGQTAKITCGGNNIGSKTVHWYQLKAGQAPVLVVYDDSDRPSGIPERFSGSNSGNTATLTIRRVEAGDEADYFCQVWESASDHWVFGGGTKLTVL
B21: ADI-21048 (antibody, V domains shown)
VH: EVQLVESGAEVKKPGASVKVSCKASGYTFSSHAISWVRQAPGHGLEWMGWISVFNGNTNYAQKFQGRVTMTTDTSTSTAYMELRSLRSDDAAVYYCAREVIGVGEFYFDYWGQGTLVTVSS
VL: QSVLTQPPSVSVAPGQTARITCGGNNIGSKSVHWYQQKAGQAPVLVVYDDSDRPSGIPERFLGSNSGNTATLTISRVEAGDEADYYCQVWDSSGDFHVFGTGTKVTVL

Target: T1, RSV postfusion F (postF), subtype A (respiratory syncytial virus subtype A, UniProt P03420 26-513)
T1 construct: also called Postfusion subtype A; F deltaFP
Assay: BLI

Binder	binding result
B1	no binding
B2	no binding
B3	no binding

Target: T2, RSV postfusion F (postF), subtype A (respiratory syncytial virus, subtype A, UniProt P03420 26-513)
T2 construct: also called F ΔFP; Postfusion subtype A
Assay: BLI, IgG

Binder	binding result	Kd
B4	no binding	–
B5	no binding	–
B6	no binding	–
B7	–	17 nM
B8	no binding	–
B9	no binding	–
B10	no binding	–
B11	no binding	–
B12	no binding	–

Target: RSV prefusion F (preF), subtype A (respiratory syncytial virus, subtype A, UniProt P03420 26-513)
Assay: BLI, IgG

Binder	Kd	binding result
B5	11.5 nM	–
B13	4.88 nM	–
B14	7.54 nM	–
B15	11.2 nM	–
B6	2.91 nM	–
B16	0.426 nM	–
B7	–	no binding
B17	1.07 nM	–
B8	24.9 nM	–
B9	28.5 nM	–
B18	0.0894 nM	–
B19	10.3 nM	–
B20	0.121 nM	–
B10	10.4 nM	–
B21	0.111 nM	–
B11	2.69 nM	–
B12	0.151 nM	–

Target: T3, RSV prefusion F (preF), subtype B (respiratory syncytial virus subtype B)
T3 construct: also called Prefusion subtype B
Assay: BLI, IgG

Binder	Kd
B1	44.2 nM
B2	33.3 nM
B3	35.7 nM

Target: RSV prefusion F (preF), subtype B (respiratory syncytial virus, subtype B)
Assay: BLI, IgG

Binder	Kd
B4	0.476 nM
B13	19.5 nM
B14	3.73 nM
B16	0.349 nM
B17	1.5 nM
B18	0.109 nM
B20	0.533 nM
